{"source": "the supplement of paper PMC12455559"}
{"test": "purified protein yield per well (BCA); higher = higher soluble expression", "experimental": "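Candidate PET hydrolases were expressed in E. coli C41(DE3) in 2 mL autoinduction cultures in 24-deep-well plates, Ni-bead purified and released by SUMO protease cleavage on an OT-2 robot. Yield per well was measured by BCA; values below 25 ug (0.1 mg/mL) are below the detection threshold. Melting temperature was measured by differential scanning fluorimetry with Sypro Orange, ramping from 25 C at 0.3 C/step.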", "units": {"purified protein yield per well": "µg"}}
{"sequence": "ADNPYQRGPDPTVASVAATRGTFATAQLTVPPGNGFGGGYIYYPTDTSHGTWGAVAIVPGYSALFANEEAWMGPWLASFGFVVIGVETNTRSDGADARATELLAALDYLTQQSAVRDRVDAGRLAVMGHSAGGAGTILAAERRPALKAAVGLAPGTPGSLSLATDKVPMMVIGGQTDPTVTPAYLDNLYAGMPTTTPSDFVQIAGADHLFFTRANNTEMKVLIPWLKIFLDNDTRYTQFLCPSLADPSGISLYRSKCPYLPPGTTSPSPSSSVTPSSPSSPSSPSTGCTAGYRTVGQWPGGFQGEVTVTAGSAAISGWTVNWTLGSGQSVTQLWNGTLTTSGSAVTVRNASYSGSVPAGGSVVFGYLADGTPSTPLLTCTGQ [ESM032]", "purified protein yield per well": "< 25"}
{"sequence": "FSAPGPSAPCSNCTRGPAPTATALKASSGPFTTAKFSVSGFLKGFGDSTVYYPTNTTGKMGAIAVIPGYLSYENSIDWWGPRLASHGFVVMTMNTETIYDQPDSRASQLSEALDYLIAQSNSSSSPIYNKVDSTRLGAIGWSMGGGGSLKLSTQRSINAIIPQAPWYLGSSAFSGIKTPALILACSADTVAPVAQHASPFYNQIPNSTPKAFLEIYGGSHFCANSGYPNQSMLGMYGIAWMKRFIDFDSRYSQFLCGPNHESDLAISDYRQNCPY [ESM044]", "purified protein yield per well": "< 25"}
{"sequence": "AGNPHQRGPDPTPQSIVAEKGPFEVATAPAPAGNGFGGGTIYYPTDTSQGTFAGIAISPGFFGPQFSIDWYGPRLASQGFVVIAITTNALWDFPSQRADQLLAALKYLKQDSPAKDRLDGGRLGVMGHSMGGGGTMEAVLKDHSLKAAIPLTGWGITADYSGVQTPTMIIGAQFDVVAPDESYSIPFYKSLRPDLDKQFLQLAGGTHFSPNLPNTTIAKYSISWLKRFLDDDTRYQQFLCPVQPDPELSAHEATCHS [DP001]", "purified protein yield per well": "< 25"}
{"sequence": "ATVTPIRMETRIRTSSFTRFTSTPTACAFDSPIAKAFSSVRSRIDASRLAVAGHSMGGGGTLEAAKDRPGLRAAVPLAPWNTTKNWSGNRVPTLIIGGQSDTIAAVSSHAVPFYTSLPTTPDKAYLELAGASHFFPQSANADVAMMFVSWLKRFVDGDTRYEQFLCPGPSVSGSVSRYSSTCPLASGPTPTSTTTATTGTSTTRTTTTSSGGSGGGACSASYATSNAWQGGFVGTVTVRADLALSGWQVTLALPAGTTITGSWNGVRSGSTGTVQVRNETYNGILASGQTTSFGFQGSGSPSGLTVTSCTAN [ESM108]", "purified protein yield per well": "< 25"}
{"sequence": "RPAPATTAASQSTQRGPDPTVAMIEATRGPFATAQVSVPAGHGFGGGMIYYPTDTSQGTWGALAIVPGYSALFANEEAWMGPWLSSFGFVVIGVETNTRTDSDSQRAAEVLAALDYLTTQSPVRNEVDPARLSVLGHSAGGAGVIEAAEQRPSLRALIGLAPGYPGQGLSMATDQVPALVVGGQADTTVTPSYLANLYGTLPASTQSDFAQIAGADHVYYTHPNNVEMKLIIPWLKLFVDSDSRYEQFLCPSLPDPSTISAYQPKCPYTPPGGSSSSSSSSSSSSASSSSPTTPTTTTSSTPSTSCTATYQTQNSWPGGFQGLVTVTAGPAAISSWTVKWNLSSGQSITQVWSGTLSTSGSAVSVGNASYNGSLAPGASATFGFLADGSPSTPTLSCTGS [ESM120]", "purified protein yield per well": "< 25"}
{"sequence": "FPAVVLAVSKQPHTDTRALTDEIKTALREIEPSLPAEITVNAELFQMKRFIDTGVWNVGEALAIGAVVVQPTGAGAQTGEFRKGPDPTEASVRASSGTFTTTTASVSSLVAGFGGGTIHYPTDTSQGTYGAIAFAPGFTASSASYSWIGPRIASQGFVVFLINTDSRYDFPASRATQLQNALNYLVNSSVAASRIDLNRLAVG [TEP030]", "purified protein yield per well": "< 25"}
{"sequence": "QAAANPYERGPAPSVSSIEAARGSYAVSQTSVSSLGVTGFGGGTVYYPTSTADGTFGAVVISPGFTATQSSISWLGPRLASQGFVVFTIDTNSTLDQPDSRGRQLLAALDYLTERSSVRTRIDATRLGVMGHSMGGGGTLEAAKSRPSLQAAIPLTGWNTDKSWPELRTPTLVIGADGDTVAPVATHSEPFYTSLPSSLDKAYLELNGATHFTPNSSNTTIAKYSISWLKRFIDDDTRYEQFLCPLPRPSVTIEEYRGNCPHS [TEP116]", "purified protein yield per well": "< 25"}
{"sequence": "ADNPYQRGPDPTVASVAATRGTFATAQLTVPAGNGFGGGYIYYPTDTGHGTWGAVAIVPGYSALFADEEAWMGPWLASFGFVVIGVETITRSDGADARATELLAALDYLTQRSAVRDRVDPTRLAVMGHSAGGAGTILAAERRPSLKAAVGLAPGTPGTLSLATDKVPMMVIGGQTDPTVTPAYLDNLYAGMPTTTPSDFVQIAGADHLFFTRANNTEMKVLIPWLKIFLDNDTRYTQFLCPSLADPSGISLYRSKCPYLPPGTTSPSPPSPSPSSPSQSVSPSTPVTGCTAGYRTVGSWPGGFQGEVTVTAGSAAISGWTVGWTLGSGQTITQLWNGALTTSGSAVTVRNASYSGSVPAGGSVVFGFLANGTPSAPVLACASR [ESM027]", "purified protein yield per well": "< 25"}
{"sequence": "MLRVTHHPPPGGTDSARTRTALPAPGAAPPRPGLPRRRGRLVTLAAAGIAAALVGLFTMTVATGTASAADNPYQRGPDPTRSSVASVNGPFANTSVAVPTGYGFNGGRIYYPTDTSQGTFGAVAISPGYNALFSAELAWMGPWLASHGFVVIGIETNSRNDFDTARGTQLLAALDYLVQQSPVRDRIDPNRLAVSGHSMGGGGALSAALRRSSLKAAVGIAPYSPSSNLANDRVPTMVFAGQADTVVTPSYATGLYNSLPVTTESAYLEVAGADHGFMVGRSNPVLIRTMLPFLKMFVDNDARYSQFLCPLADNNGVVSYRSTCPLLPSTPTTPPPTPSDTPPPTPSQTPTSSPTGNPPGTASLIVGAQSNRCLDVPNASRANGTRVQLWDCNRQANQSWTYTSGKQLRVYGDMCLDAAGSGNGAAVQIYGCHSQTNQQWNVNANGTISSVQSGRCLDVWSTANGAQVQLYDCHGQTNQRFTLTPLT [TEP176]", "purified protein yield per well": "< 25"}
{"sequence": "QVGPAPSSSSLNATAGPFAVSTSNVILARGFGGGTIYYPSTSGLYGVVAISPGFTATESSVAWLGRRMATHGLVVITINTNTTLDQPASRATQLMAALNYVVNSASSTVRSRVDSTKLAVAGHSMGGGGALIAAEDNPTLKASLPLTPWNLSTSFTRVRVPTLIVGADGDSVASVTVHARPFYASLPASTFKAYAELNLASHFTPNSTNTPIGRYGVAWMKRFVDADTRYSPFLCGAEHNAYNTALVFDRYNQNCPY [ESM153]", "purified protein yield per well": "< 25"}
{"sequence": "MGFGGGTIYYPTTSGQYGAIAVCPGFTGTSSSISWFARRLATHGFVTIAMNTTTTLDYPSSRATQLAAALRYLLNSSSSTIRSRIRTADRGVAGHSMGGGGTLIASANDSTLRAGIPMTPWNTYTSFSSVRVPQMIFGADGDTIAPYATHARPFYNSISLAEKAYALLNGAGHFTPNSTDQRIRRYGVAFAKRFVDGDTRYNPFLCGAEHTAYATSSRFQTYLSNCPY [ESM185]", "purified protein yield per well": "< 25"}
{"sequence": "VQSESPGKKYTSGPYGYTTTSLTGYSAGATIYIPRTGTPPYSGIVFMQPYTGTQAMDAAWGPFFASHGIIYVNCDSMTTLDTVDSRATQQMNAVSILKSSSKVKGKLDTSRVGVMGWSMGGGASWINSSKSGVKTAMTLAGHNLTAVSTASKGYSTRCPTAIFSGSLDTTYLGGLGQSEGVYAAIPRSVSKLHYKVATAGHMVWGGPTTASVNVGAIGLAFQKTYLDGDTRWKAYITRPADAAIWTTNLR [TEP005]", "purified protein yield per well": "< 25"}
{"sequence": "SGGSSPDGPRESRQDGPSSAGPSYPSAGPLEGPYEVRTQTVGPDDVGGRFRGGTVYYPADGSRDYGVIAASPGLGADQSMVQAYGALLASHGFVLITFDTKTPQDSPAQRGRQMLDALDWAAEHSAAAGRADPDRLGVMGHSMGGGAALHAASRDPRIKAAVPLTPYAGKRDWSGVTAATLVVSGSDDEVAPPSGHARAFYDGLDDAKEKAYLELKGDHFVATPPDRLVSRQTVAWFKHFVGGDKAAGEDLCPAPREERVVASRDTCPYG [TEP134]", "purified protein yield per well": "< 25"}
{"sequence": "ATTTLLAESFDNGFGVFSAQGYASTDNGVAVLRGGSADGTITSGAVPAAGQTNLTLSWTQTTSRLDAGESLVVEWSTGSSWSSLSSERSSGVLSVGLPTAAASNALQLRFRVDASSYYERVDVDDVVLTAGDGGGSGNPYAKGPDPTWNSIEATTGPFEVDDYDISSFAADGFGGADVYYPSDAGSATFGGIAISPGYTASRSTVTWLGPRIASQGFVVIVIDTNSRYDQPASRGDQLLAALDQLVNDSDVSHLVDPNRLAVMGHSMGGGGSLEAADDRPSLRAIVPLQGWNSDKTWSQVQVPALLIGGENDSVAPDSSHSQRFYDSLGGEKVYLQLNNASHFASNSPNTTIASYSIAWLKRWVDEDTRYSQFVCGPDAGQGSAISDYRTTCPV [DP065]", "purified protein yield per well": "< 25"}
{"sequence": "DGYERGPDPTPTRLLGNGSFSVSTTSVSSLVLGFGGGTIYYPTSTSEGTFGGVVLSPGFTATSGSYAGVARRVASHGFVVLVIDTNTIYDQPDSRGRQILDAVDYLTEDAPSAVASRLDESRIAVSGHSMGGGGTLYAADNRTSVIKTAVALQPWHTDKTWPGVDIPTMIIGAENDAIAPVSSHSIPFYASLSGAPEKAYGEVNNAGHLIANTNDDWQGRLFVSWLKRYLDEDLRYEAFLCPAPSSISLSDYRDTCPG [DP030]", "purified protein yield per well": "< 25"}
{"sequence": "RPAPEAAAPQAAQGNPYQRGPDPTVAAIEASRGPFATAQMSVAPGNGFNGGVVYYPTDTSLGTWGALAIVPGYTALCADEEAWMGPWLSSFGFAVICVETNTRTDDAGTRASELLAGLDWLTTQSPVRAEIDPNRLSVLGHSAGGAGAIIAAERRPALKAMIGLAPGFPGNGLSMATDTVPTLVVGGQNDTVVTPSYLSGLYATLPAGTQSGFAQIAGADHVYYTRPNNVEMKLLIPWLKVFVDSDTRYTQFLCPALPDPSGISAYQPKCPYVPTGGTTPPPGGQSVHAVGAGKCLTVPGADPAAGTQTDISTCDGGTGQVWTRTSSGQLTVSTGGTTMCLDAAGAGVSPGTRVQVWPCNGGSNQQWRVNANGTITGAQSGLCLDVTGASTANGALVELWTCNGGSNQQWALQ [TEP183]", "purified protein yield per well": "< 25"}
{"sequence": "RPRDSAPANPYQRGPDPTVAMIESSTGPFATTSASVPAGHGFNGGTVYYPTDTSLGTWGALAIVPGYSALFANEEAWMGPWLSSFGFVVLGVETNSRTDSADARGTELLAALDYLTTQSPVRDRVDPNRLAVLGHSAGGAGAMLAAENRPSLKAAIGLAPGSPVGNLSLATDKVPTMVLGGQNDTVVTPSYLSGLYATMPASTQSVFAQIAGADHVYYTHPNNVEMKLLIPWLKTFLDSDTRHPPFLCPAPPDPRSISIYTPKCPYVPGGGTPPGGGNTGPLHAVGAAKCLAAPPAGAAGTQVTIGGCDGRAGQTWTRTAAAELTVTPAGTPLCLDASGQGTSPGTKVIVWSCNGQANQQWNLNADGSVTAARSGLCLDVTGASTAEGAPVELWSCNGGSNQRWSLG [TEP095]", "purified protein yield per well": "< 25"}
{"sequence": "VANPYQRGPAPTEASVTAKLGPFAIASKKVGAFSHPGIREGTVYYPTDTSQGTFGAIAVAPGFVSPEALVSWYGPRLASQGFVVMTLEITTGFDLPEARAAQLLSALDFMKKDNTIKNRIDPNRLAVMGWSMGGGGTLRAAQQSASLKAAIPLAPWDLGMDWSNVRVPTMIIGGDNDFVASPGFHAEPFYTQLADEKAYLELENAGHFTFTSDNNTIAKYAISWMKRWVDEDTRYTQFLCPPPPAPSPTIQKYRQTCPY [DP046]", "purified protein yield per well": "< 25"}
